This note sets out measurements from article PMC9817130 (2023).

Sequences and labels used below:
B1: P3E6 monoclonal antibody (IgG) (antibody, V domains shown)
VH: EVQLLDSGGGLVQPGGSLRLSCAVSGFTFSNYAMNWVRQTPGKELEWVSAISGTGDDTHYADSVRGRFTISSDNSKNTVYLQMNSLRVEDTAIYYCAKAISRYPWGCLDYWGQGTLVTVSS
VL: not shown
B2: P2B4 monoclonal antibody (IgG) (antibody, V domains shown)
VH: EVQLVESGGGLVQPGRSLRLSCAASGFNFDDYAMHWARQVPGKGLEWVSGISGNSGSVEYADSVKGRFAMSRDNAKNSLYLEMNSLRTEDTALYYCAKETTPWGIYRSGGLDVWGQGTTVTVSS
VL: DIQMTQSPSSLSASVGDRVTITCRASQSIHSFLSWYQQKPGKAPKLLINSASTLQSGVPPWFSGSGSGTDFTLTISSLQPEDFATYYCQQSYIAPWTFGQGTKVEIK
B3: P1D9 monoclonal antibody (IgG) (antibody, V domains shown)
VH: EVQLVQSGAEVKKPGSSVRVSCKASGGTFGDDSITWVRQAPGQGLEWMGGIFPLIGKTHYAQRFQGRLTVTADKSTSTAYMELSGLRSEDTAIYYCARDWGTTLTAFDIWGQGTMVTVSS
VL: DIQMTQSPSSLSASVGDTVTITCRAGQTINTFLNWYQQKPGKAPKLLIYAASTLQSGVPSRFSGSGSGTDFTLTINSLQPEDFATYYCQQSYSNLYTFSQGTKVEIK
B4: P2D9 monoclonal antibody (IgG) (antibody, V domains shown)
VH: EVQLVESGAEVKKPGSSVKVSCKASGDTFYTFDISWVRQAPGQGLEWMGGISPVFDAPNYAQKFQDRVTITADKSTSTAYMELSSLRSEDTAIYYCVKPTYSNYVWGIGAFDVWGQGTTVTVSS
VL: EIVLTQSPGTLSLSPGERATLSCRASQSVGNIYLAWYQQKPGQAPRLLIYGASTRATGIPDRFSGSGSGTDFTLTISRLEPEDFAVYYCQQYGDSLWTFGQGTKVEIK

The first assay addresses T1, SARS-CoV-2 WT RBD protein (Sino Biological) (SARS-CoV-2, UniProt P0DTC2 319-541). The experiment in a line: SPR. For orientation: Surface plasmon resonance follows binding to a sensor surface in real time, without labels.
As a reminder, the koff is the first-order rate constant of dissociation. Read a high koff as fast dissociation. As for B1, the koff stood at 0.00014 s⁻¹.
Regarding B2, the koff was determined as 1.37e-05 s⁻¹.
On the same count and under the same terms, for B3 the value was 7.68e-05 s⁻¹; for B4, 4.34e-05 s⁻¹.

A further assay concerns the target T1, SARS-CoV-2 WT RBD protein (Sino …). The experiment in a line: SPR. This is another data set of the same source.
As a reminder, the Kd is the free concentration of one partner at which half of the binding sites on the other are occupied at equilibrium, for simple one-to-one binding. B1: the Kd stood at 0.558 nM.
In turn, B2 returned a Kd of 0.143 nM.
As to B3, binding was characterised by a dissociation constant (Kd) of 0.188 nM.
Same read-out and setting: the figure for B4 is 0.202 nM.
